The results in this text go back to article PMC5063001 (Nucleic Acids Research, 2016).

The data set “crystal structure” deals with the molecule itself. Kind of data set: crystal structure.
For data set [1], the target named is T1, 15N-labeled FLI1 DBD (NMR) (UniProt Q01543 259-399).
T1 sequence: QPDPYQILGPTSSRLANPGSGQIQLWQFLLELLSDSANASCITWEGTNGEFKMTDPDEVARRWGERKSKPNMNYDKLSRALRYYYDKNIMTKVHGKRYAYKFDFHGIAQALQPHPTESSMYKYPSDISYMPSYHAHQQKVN
Kind of data set: NMR.

The next data set deals with T2, FLI1 DBD (259-399) (UniProt Q01543 259-399).
T2 sequence: T1 sequence
Kind of data set: fluorescence anisotropy. (In general: In fluorescence polarisation assays a small probe gives low polarisation when free and higher when bound to something large.)

Another data set has as its target T3, FLI1 DBD (276-375) (UniProt Q01543 276-375).
T3 sequence: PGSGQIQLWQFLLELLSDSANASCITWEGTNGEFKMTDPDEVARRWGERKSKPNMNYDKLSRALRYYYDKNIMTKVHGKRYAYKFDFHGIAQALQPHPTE
Kind of data set: X-ray crystallography.

B1: DNA binding domain of FLI1 (residues 276-375) (domain or fragment)
chain: T3 sequence
B1: the binding result in the data set “crystal structure” is on record as “binds”.

B2: 12-mer TTGAAGGAAGAG (dsDNA)
DNA 1: TTGAAGGAAGAG
DNA 2: CTCTTCCTTCAA
For the molecule B2, the binding result in data set [1] is given as “binds”.

B3: AA(GGAA)6 (dsDNA)
DNA 1: AAGGAAGGAAGGAAGGAAGGAAGGAA
DNA 2: TTCCTTCCTTCCTTCCTTCCTTCCTT
Take B3: in the data set with FLI1 DBD (259-399), the binding result is on record as “binds”.

B4: 11-mer GACCGGAAGTG (dsDNA)
DNA 1: GACCGGAAGTG
DNA 2: CACTTCCGGTC
Regarding B4, the binding result in the data set with FLI1 DBD (276-375) is reported as “binds”.
